Results taken from patent publication US20200308246A1 (published 2020).
Where no end group is shown, it is not given here. [ ]: non-standard residue; d: D form. pS = N[C@@H](COP(=O)(O)O)C(=O)O

T1: MLL (KMT2A), MLL-pP peptide on HLA-B*07:02 (human)
T1 peptide: RVR[pS]PTRSP

T2: MLL-pM-A1 peptide on HLA-B*07:02 (human)
T2 peptide: APR[pS]PSHSM

T3: MLL-pM-A6 peptide on HLA-B*07:02 (human)
T3 peptide: EPR[pS]PAHSM

T4: MLL-pM-A7 peptide on HLA-B*07:02 (human)
T4 peptide: EPR[pS]PSASM

T5: MLL-pM-A9 peptide on HLA-B*07:02 (human)
T5 peptide: EPR[pS]PSHSA

T6: MLL-pM-A3 peptide on HLA-B*07:02 (human)
T6 peptide: EPA[pS]PSHSM

T7: MLL-pM-A5 peptide on HLA-B*07:02 (human)
T7 peptide: EPR[pS]ASHSM

T8: MLL-pM-A2 peptide on HLA-B*07:02 (human)
T8 peptide: EAR[pS]PSHSM

T9: MLL-pM-A4 peptide on HLA-B*07:02 (human)
T9 peptide: EPRAPSHSM

T10: MLL-pM-A8 peptide on HLA-B*07:02 (human)
T10 peptide: EPR[pS]PSHAM


How the values were obtained:
[1] = biological target: T1, MLL (KMT2A), MLL-pP peptide on …; assay: multimer staining
[2] = biological target: T2, MLL-pM-A1 peptide on HLA-B*07:02; assay: activation reporter or marker
[3] = biological target: T3, MLL-pM-A6 peptide on HLA-B*07:02; assay: activation reporter or marker
[4] = biological target: T4, MLL-pM-A7 peptide on HLA-B*07:02; assay: activation reporter or marker
[5] = biological target: T5, MLL-pM-A9 peptide on HLA-B*07:02; assay: activation reporter or marker
[6] = biological target: T6, MLL-pM-A3 peptide on HLA-B*07:02; assay: activation reporter or marker
[7] = biological target: T7, MLL-pM-A5 peptide on HLA-B*07:02; assay: activation reporter or marker
[8] = biological target: T8, MLL-pM-A2 peptide on HLA-B*07:02; assay: activation reporter or marker
[9] = biological target: T9, MLL-pM-A4 peptide on HLA-B*07:02; assay: activation reporter or marker
[10] = biological target: T10, MLL-pM-A8 peptide on HLA-B*07:02; assay: activation reporter or marker
[11] = biological target: T1, MLL (KMT2A), MLL-pP peptide on …; assay: activation reporter or marker

Row | binding result [1] | binding result [2] | binding result [3] | binding result [4] | binding result [5] | binding result [6] | binding result [7] | binding result [8] | binding result [9] | binding result [10] | binding result [11] | Binder
1 | recognises | no recognition | no recognition | no recognition | no recognition | no recognition | no recognition | no recognition | no recognition | no recognition |  | TCR0085 (TCR, V domains shown) Valpha: KQEVTQIPAALSVPEGENLVLNCSFTDSAIYNLQWFRQDPGKGLTSLLLIQSSQREQTSGRLNASLDKSSGRSTLYIAASQPGDSATYLCAVMLWNQGGKLIFGQGTELSVKP Vbeta: KAGVTQTPRYLIKTRGQQVTLSCSPISGHRSVSWYQQTPGQGLQFLFEYFSETQRNKGNFPGRFSGRQFSNSRSEMNVSTLELGDSALYLCASSLGRGYEQYFGPGTRLTVT
2 |  | no recognition | no recognition | no recognition | no recognition | recognises | no recognition | no recognition | no recognition | recognises | no recognition | TCR0077 (TCR, V domains shown) Valpha: TQLLEQSPQFLSIQEGENLTVYCNSSSVFSSLQWYRQEPGEGPVLLVTVVTGGEVKKLKRLTFQFGDARKDSSLHITAAQPGDTGLYLCAGYGGGSNYKLTFGAGTRLTVKP Vbeta: EAQVTQNPRYLITVTGKKLTVTCSQNMNHEYMSWYRQDPGLGLRQIYYSMNVEVTDKGDVPEGYKVSRKEKRNFPLILESPSPNQTSLYFCASRLTGRVHGYTFGPGTRLTVL
